We go through one molecule from PMC10799895 (Nature Communications, 2024).

This test addresses T1, His-sumo-ATG14 (UniProt Q6ZNE5 1-492).
T1 construct: not shown: 6×His, N-terminal, kept; SUMO, N-terminal, kept
In words: pull-down; GST pull-down in vitro: GST-tagged protein on GST beads with the His-tagged protein overnight at 4 °C in 20 mM Tris pH 7.4, 300 mM NaCl, 0.1% NP-40, 1 mM PMSF; three washes; western blot. The conditions noted are these: both partners purified.

T1 sequence (Q6ZNE5 whole entry): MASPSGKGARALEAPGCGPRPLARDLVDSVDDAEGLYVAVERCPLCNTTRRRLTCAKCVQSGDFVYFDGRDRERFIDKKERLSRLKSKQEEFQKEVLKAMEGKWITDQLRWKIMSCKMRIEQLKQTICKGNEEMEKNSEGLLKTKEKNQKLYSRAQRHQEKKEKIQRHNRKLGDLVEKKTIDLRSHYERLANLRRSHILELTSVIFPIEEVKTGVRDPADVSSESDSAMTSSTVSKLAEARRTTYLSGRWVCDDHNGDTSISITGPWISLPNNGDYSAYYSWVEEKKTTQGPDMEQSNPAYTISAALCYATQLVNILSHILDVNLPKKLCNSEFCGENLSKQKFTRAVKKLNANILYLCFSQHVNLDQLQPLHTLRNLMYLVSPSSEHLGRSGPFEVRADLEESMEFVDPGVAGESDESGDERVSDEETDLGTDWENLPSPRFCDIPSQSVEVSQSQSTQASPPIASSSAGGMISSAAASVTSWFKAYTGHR

B1: GST-GABARAP (natural protein, UniProt O95166 1-117, looked up)
chain: MKFVYKEEHPFEKRRSEGEKIRKKYPDRVPVIVEKAPKARIGDLDKKKYLVPSDLTVGQFYFLIRKRIHLRAEDALFFFVNNVIPPTSATMGQLYQEHHEEDFFLYIAYSDESVYGL
notes: also called GST-ATG8s; not shown: GST, N-terminal, kept
B1: the binding result was “binds”.
